B1: GnRH-II: unique ten amino acid long neuropeptide, 70% homologous in peptide structure to GnRH-I, encoded by its own gene (peptide)
peptide: QHWSHGWYPGGKRALSSAQDPQNALRPPGRALDTAAGSPVQTAHGLPSDALAPLDDSMPWEGRTTAQWSLHRKRHLARTLLTAAREPRPAPPSSNKV

Columns and labels:
normal human T-cells [1] = experiment: Double immunofluorescence staining (FACS) for surface 67 kDa laminin receptor and TCR; type: cell-based; settings: for 67 kDa LR and TCR positive (double positive) cell population: 10 nM, 48 hours, 37° C., untreated 35.7%; for surface expression of the 67 kDa LR, in words: vs untreated normal human T-cells
Method: Normal human T-cells, isolated from fresh peripheral blood lymphocytes, or EL-4 T-lymphocyte cells were subjected to double immunofluorescence staining, using a mouse monoclonal anti-67 kDa LR antibody (100 μl of 1:20 dilution per 1×10^6 cells/tube; 30 minutes on ice), or normal mouse sera for control. The cells were then stained with an FITC-conjugated goat anti-mouse IgG (100 μl of 1:100 dilution), and PE-conjugated mouse anti-human TCR αβ mAb (2 μl of stock). Cells that were stained only with the second and third antibodies served as additional negative controls. Fluorescence profiles were recorded in a FACSORT. To determine whether GnRH-II and GnRH-I trigger not only the gene transcription but also the surface expression of the 67 kDa LR, normal human T-cells were treated with either GnRH-II or GnRH-I for 18-66 h and subjected to double immunofluorescence staining using a monoclonal antibody (mAb) that is specific for the 67 kDa LR, and a phycoerythrin (PE)-conjugated anti-TCRαβ mAb (to confirm the T-cell origin of the cells). FIGS. 2A-2C show the staining for the untreated, GnRH-I treated and GnRH-II treated T-cells, respectively. The FACS profiles can be interpreted by division according to four categories: 1. Negative staining for both mAbs (double negative, lower left quadrant); 2. Single positive staining only with the anti-LR mAb (lower right quadrant), 3. Single positive staining only with the anti-TCR mAb (upper left quadrant); 4. Double positive staining with both mAbs (upper right quadrant). […] In different experiments, each using freshly isolated T-cells from a different human donor, both GnRH II and GnRH I repeatedly elevated the laminin receptor expression level, but the magnitude of elevation varied within a range of 6-40%. Such variations between T-cell populations originating from different donors are often observed in respect to various T-cell features and functions.

normal human T-cells [2] = experiment: Double immunofluorescence staining for VLA-6 laminin-binding integrin and TCR; type: cell-based; settings: untreated cells about 75% double positive; data not shown
Source text: Finally, the possibility that the stimulation of normal human T-cells by either GnRH-I, GnRH-II or anti-CD3+ anti-CD28 mAbs, elevates not only the non-integrin 67 kDa LR but also the expression level of the VLA-6 laminin-binding integrin (known to be expressed on T-cells) was investigated. […] Thus stimulation by GnRH-II and GnRH-I (as well as TCR-activation) primarily increases-the-protein surface expression of the non-integrin 67 kDa LR, but not of the VLA-6 laminin binding integrin.

EL-4 T-lymphoma cells = experiment: Double immunofluorescence staining for 67 kDa LR and TCRαβ on EL-4 cells; type: cell-based, mouse; settings: 10 nM, vs untreated EL-4 cells
Method: Normal human T-cells, isolated from fresh peripheral blood lymphocytes, or EL-4 T-lymphocyte cells were subjected to double immunofluorescence staining, using a mouse monoclonal anti-67 kDa LR antibody (100 μl of 1:20 dilution per 1×10^6 cells/tube; 30 minutes on ice), or normal mouse sera for control. The cells were then stained with an FITC-conjugated goat anti-mouse IgG (100 μl of 1:100 dilution), and PE-conjugated mouse anti-human TCR αβ mAb (2 μl of stock). Cells that were stained only with the second and third antibodies served as additional negative controls. Fluorescence profiles were recorded in a FACSORT.
Normal syngeneic C57BL/6 female recipient mice were then subjected to 300 rad total body irradiation, and several hours later inoculated I.P with 5×10^6 cells/mouse of either untreated or GnRH-treated EL-4 lymphoma cells. In parallel, samples from the treated and GnRH inoculated EL-4 cells were tested by double immunofluorescence (as described above) for the level of their 67 kD LR and TCRαβ. […] Following further dilution in PBS for the kidney (1:3) and liver (1:10), the number of fluorescent cells, as well as the total number of cells in each tube, were counted by flow cytometry (FACSORT).

[3] = test system: mouse antigen-specific T cells; experiment: Atlas mouse cDNA expression array of GnRH-II treated T-cells; type: cell-based
Method: Anti-MBP 87-99 T-cell lines were established from lymph nodes of SJI/J mice as described^23 and analyzed for their specificity to MBP 87-99 peptide in a proliferation assay.
Poly A+RNA was extracted from the mouse anti-MBP 87-99 cell line before and after treatment with 10 nM GnRH-II for 24 hours, using the ATLAS Pure Total RNA Labeling System (Clontech Laboratories, Inc. Palo Alto, Calif.) according to manufacturers recommendations. Following DNase treatment, ^32P-labeled cDNA was prepared from poly A+ RNA preparations that were prepared from either untreated or GnRH-II treated mouse T-cells. Hybridizations to the ATLAS Mouse cDNA Expression Arrays membranes (Catalog No. PT3140-1, Clontech Laboratories), were performed according to the user manual, and the expression pattern was visualized by autoradiography.
Poly A+ RNA was prepared from both GnRH-II-treated and untreated cells and reverse transcribed to ^32P-labeled cDNA. Using an Atlas cDNA expression array (i.e. a positively charged nylon membrane spotted with 1200 different cDNAs) for identification of effected genes, the reverse transcribed products were characterized by hybridization to the atlas membranes. The differential pattern of expression between untreated cells and GnRH-II-treated cells was visualized by autoradiography (FIGS. 1A and 1B).

Molecule | 67 kDa LR and TCR positive (double positive) cell population (normal human T-cells [1]) | surface expression of the 67 kDa LR, in words (normal human T-cells [1]) | expression level of VLA-6 laminin-binding integrin (normal human T-cells [2]) | surface level of 67 kDa LR on TCR αβ+ EL-4 cells (EL-4 T-lymphoma cells) | expression of mRNA encoding non-integrin 67 kDa laminin receptor ([3]; 10 nM, 24 hours, resting mouse antigen-specific T-cells, vs untreated cells) | transcription of other genes including house-keeping gene nucleoside diphosphate kinase B ([3]; 10 nM, 24 hours, vs untreated cells) | synthesis of CD4 antigen, Cyclin D2 and thymus cell antigen 1 genes (changed by antigenic stimulation) ([3]; GnRH-II alone 10 nM, data not shown)
pGlu-His-Trp-Ser-Tyr-Gly-Leu-Arg-Pro-Gly-NH2 [GnRH-I] | 72.4% | significantly increased | unaffected | increases | – | – | –
B1 | 74.3% | significantly increased | unaffected | increases | induced the over expression | not affected | did not affect
